Columns and labels:
[1] = target: T1, murine IGF-1R (Mus musculus, UniProt Q60751); assay: BIACORE surface-plasmon resonance, murine IGF-1R; format: binding
T1 construct: evaluated against human and murine IGF-1R-ECD
Method: Before HVR grafting, murine 2B4, 9F2, and 10H5Fab binding affinities were evaluated against human and murine IGF-1R-ECD using BIACORE™ instrument analysis. The procedure used was that for BIACORE™ instrument analyses generally, wherein the analyte was anti-IGF-1R Fab (500 nM-[…]; two-fold serial dilution), the ligand was IGF-1R (about 500 RU)-coated CM5 sensor chip, and the temperature was 25° C.
Binding affinities of selected antibodies to IGF-1R were determined by surface plasmon resonance measurements on a BIACORE™ 3000 instrument (BIAcore, Inc.). Human, murine, or cynomolgus-monkey IGF-1R was immobilized at a density of about 500 RU on the flow cells of a PIONEER™ CM5 sensor chip. Immobilization was achieved by random coupling through amino groups using a protocol provided by the manufacturer. Sensorgrams were recorded for binding of anti-IGF-1R Fab or IgG to these surfaces by injection of a series of solutions ranging from 500 nM to 3.1 nM and 250 nM to 0.78 nM in two-fold increments, respectively. The signal from the reference cell was subtracted from the observed sensorgram. Kinetic constants were calculated by non-linear regression analysis of the data according to a 1:1 Languir binding model using software supplied by the manufacturer.

[2] = target: T2, human IGF-1R-ECD (Homo sapiens, UniProt P08069); assay: competitive ELISA, blocking of IGF-I/II and IGF-1R interaction; format: binding; conditions: antibody 100 nM to 0.0976 nM, biotinyl-IGF-I or IGF-II 60 ng/ml
T2 construct: containing the extracellular domain (ECD, amino acids 1-902) tagged with 10 or 12 histidine residues at the carboxyl terminus; His10 or His12 (C); made in house; host or cells: CHO cells
Method: To determine whether the anti-IGF-1R antibodies could block ligand/receptor interaction, competitive ELISA was utilized. Human IGF-1R-ECD was coated overnight at 4° C. at 1 μg/ml in a 96-well immunoplate (Nalge Nunc International, Rochester, N.Y., USA). The ELISA plate was washed with wash buffer (PBS, 0.05% TWEEN™ 20 surfactant, pH 7.4), and 150 μl/well of blocking buffer (PBS with 0.5% BSA) was added for one hour at room temperature with gentle agitation. Purified anti-IGF-1R antibodies were first subjected to a two-fold dilution from 100 nM to 0.0976 nM in assay buffer (PBS, 0.5% BSA and 0.05% TWEEN™ 20 surfactant, pH 7.4) and added to the immunoplate to incubate at room temperature for one hour. Biothinyl-IGF-I or IGF-II at 60 ng/ml concentrations (Cell Science, Canton, Mass., USA) was then added and incubated for another 30 minutes. The ELISA plate was washed three times, and 100 μl/well of streptavidin-HRP (GE Healthcare, Piscataway, N.J., USA) at a dilution of 1:6,000 was added for 20 minutes. Color development was conducted as described in conjunction with the direct ELISA. The selected anti-IGF-1R antibodies inhibited IGF-I or IGF-II binding to IGF-1R to various degrees (FIGS. 19A and 19B for IGF-I and IGF-II, respectively).

[3] = test system: T47D; assay: cell viability assay, T47D; format: cell-based, human; set-up: key: +: growth inhibition; −: no or weak effect; conditions: Breast Ductal Carcinoma
Method: (§1) The different cell lines were cultured in their respective culture media at 37° C. in a humidified atmosphere of 5% CO2. Subsequently, cells were detached from tissue-culture flasks using the cell-dissociation solution, TRIPLE SELECT™ solution (InVitrogen, Carlsbad, Calif., USA), and centrifuged at 1000 rpm for five minutes. Detached cells were washed once with PBS, counted, and seeded in 96-well plates (Corning, N.Y., USA) at 2000 cells per well in 100 μL of culture media. After an overnight incubation at 37° C. in a humidified atmosphere of 5% CO2, the cell-culture medium was replaced with 50 μL of starvation medium consisting of serum-free RPMI 1640™ medium without phenol red. The cells were then starved for five hours in the incubator before addition of 25 μL of each anti-IGF-1R monoclonal antibody at various dilutions in serum-free RPMI 1640™ phenol red-free media. Later, 25 μL of phenol red-free RPMI 1640™ media supplemented with 4% of fetal bovine serum (FBS) (Sigma) with or without 4 ng/ml of human recombinant IGF-I were added on top of the 50 μL of antibody. The cells were then placed at 37° C. with 5% CO2 for 5 to 6 days. At the end of the assay, cell viability was measured using the […]-GLO® kit according to the manufacturer's instructions (Promega, Madison, Wis., USA).

[4] = test system: HT29; assay: cell viability assay, HT29; format: cell-based, human; set-up: key: +: growth inhibition; −: no or weak effect; conditions: HT29, Colorectal Adenocarcinoma
Method: as §1

[5] = test system: HMEC; assay: cell viability assay, HMEC; format: cell-based; set-up: key: +: growth inhibition; −: no or weak effect; conditions: Human Mammary Epithelial Cell
Method: as §1

[6] = target: IGF-1R (Homo sapiens, UniProt P08069); assay: KIRA assay of IGF-1R phosphorylation in MCF7 cells; format: cell-based; set-up: IGF-1R is normally localized at the plasma membrane of MCF7 cells; endogenous in cells; host or cells: MCF7; conditions: IGF-I 10 ng/ml or IGF-II 50 ng/ml; ranking upon IGF-II stimulation
Method: Also examined was whether the blocking activity of these antibodies was sufficient to interfere with receptor activation, which is measured by IGF-1R phosphorylation. A KIRA assay (kinase receptor activation) was utilized to perform quantitative analysis of IGF-1R phosphorylation in MCF7 cells. Anti-IGF-1R antibodies in serial dilutions (0.19 to 200 nM in medium) were added to MCF7 cells in 96-well plates for one hour. IGF-I (10 ng/ml) or IGF-11 (50 ng/ml) was subsequently added and incubated for ten minutes. The cells were lysed, and the resulting lysates were transferred to an ELISA plate, which was coated with IGF-1R-capturing antibody 3B7 (250 ng/well). After incubation for two hours, the cell lysate was removed, and the plates were washed. Phosphotyrosine-specific antibody 4G10 (Upstate, Charlottesville, Va., USA) was added to detect IGF-1R phosphorylation through TMB peroxidase substrate.

T1 sequence (Q60751 31-737 limits assumed): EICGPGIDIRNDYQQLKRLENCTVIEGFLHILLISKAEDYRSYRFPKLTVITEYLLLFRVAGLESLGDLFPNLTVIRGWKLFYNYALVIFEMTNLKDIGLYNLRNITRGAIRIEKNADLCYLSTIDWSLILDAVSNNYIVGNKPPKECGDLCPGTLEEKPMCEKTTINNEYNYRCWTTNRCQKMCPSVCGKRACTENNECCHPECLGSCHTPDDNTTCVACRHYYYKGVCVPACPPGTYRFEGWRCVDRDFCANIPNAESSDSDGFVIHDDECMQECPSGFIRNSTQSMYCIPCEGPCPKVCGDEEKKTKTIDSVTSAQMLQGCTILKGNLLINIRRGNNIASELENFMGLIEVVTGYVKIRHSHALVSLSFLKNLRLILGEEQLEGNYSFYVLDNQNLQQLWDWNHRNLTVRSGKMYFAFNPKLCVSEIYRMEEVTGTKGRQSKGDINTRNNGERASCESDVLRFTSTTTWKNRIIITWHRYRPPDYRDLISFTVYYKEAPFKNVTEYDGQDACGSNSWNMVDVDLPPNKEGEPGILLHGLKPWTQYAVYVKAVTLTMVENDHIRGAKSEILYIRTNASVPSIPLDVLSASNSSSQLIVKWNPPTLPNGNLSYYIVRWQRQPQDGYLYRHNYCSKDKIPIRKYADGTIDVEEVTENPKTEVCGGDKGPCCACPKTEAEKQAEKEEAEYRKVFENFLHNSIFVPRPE
T1 sequence (Q60751 742-936 limits assumed): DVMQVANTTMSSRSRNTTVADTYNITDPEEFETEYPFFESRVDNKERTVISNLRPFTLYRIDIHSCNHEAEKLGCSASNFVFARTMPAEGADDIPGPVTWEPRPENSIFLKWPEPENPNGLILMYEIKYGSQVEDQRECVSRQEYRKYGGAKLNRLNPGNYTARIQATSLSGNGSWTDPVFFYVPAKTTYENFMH

Molecule | binding to mouse IGF-1R [1] | inhibition of IGF-I or IGF-II binding to IGF-1R [2] | Effect of IR3, 6D2, 9F2, and 10H5 [3] | Effect of IR3, 6D2, 9F2, and 10H5 [4] | Effect of IR3, 6D2, 9F2, and 10H5 [5] | inhibition of IGF-I/II-mediated IGF-1R phosphorylation (KIRA) [6]
9F2: mouse monoclonal anti-IGF-1R antibody from hybridoma 9F2.6.2, ATCC PTA-7018 (antibody, V domains shown) VH: QIQLVQSGPELKKPGETVKISCKASGYTLANYGMNWVKQAPGKGFKWMGWINTNTGKPTYSDEFKGRFVFSLETSASTAYLLINNLSNEDTATYFCARSIYYYGSRYFNVWGAGTT VL: DIQMTQSTSSLSASLGDRVTISCRASQDINNYLTWYQQKPDGTVKLLIYYTSRLHSGVPSRFSGSGSGTDYSLTITNLEQEDFATYFCQQGNTLPWTFGEGTKVEIKR | not to mouse IGF-1R or human insulin receptor | most potent group | − | + | − | most effective group
10H5: mouse monoclonal anti-IGF-1R antibody from hybridoma 10H5.3.4, ATCC PTA-7007 (antibody, V domains shown) VH: QVQLQQPGAELVKPGASVTLSCKASGYTFTRFWIHWVKQRPGQGLEWIGEINPSNGRTNYNENFKNKATLTVDTSSSTAYMQLSSLTSEVSVVYYCARGGRLDQWGQGTT VL: DIVMTQSQKFMSTSLGDRVSVTCKASQNVGSNVAWYQQKPGQSPEALIYSASYRYSGVPDRFTGSGSGTDFTLTISNVQSEDLAEYFCHQYNNYPYTFGGGTKVEIKR | not to mouse IGF-1R or human insulin receptor | most potent group | − | + | − | most effective group

Source: patent US20090068110A1, “ANTIBODIES TO INSULIN-LIKE GROWTH FACTOR RECEPTOR” (Genentech, Inc., priority 2006, published 2009)
